Reference: US20260184748A1 (University of Pennsylvania, published 2026)
Where no end group is shown, it is not given here.

Key:
Experiment in all cases: cell-based or functional assay
SSTR3 = SSTR3 (UniProt P32745 1-418)
HTR2A = HTR2A (UniProt P28223 1-471)
PRLHR = biological target: T1, PRLHR (UniProt P49683 1-370)
T1 sequence (looked up): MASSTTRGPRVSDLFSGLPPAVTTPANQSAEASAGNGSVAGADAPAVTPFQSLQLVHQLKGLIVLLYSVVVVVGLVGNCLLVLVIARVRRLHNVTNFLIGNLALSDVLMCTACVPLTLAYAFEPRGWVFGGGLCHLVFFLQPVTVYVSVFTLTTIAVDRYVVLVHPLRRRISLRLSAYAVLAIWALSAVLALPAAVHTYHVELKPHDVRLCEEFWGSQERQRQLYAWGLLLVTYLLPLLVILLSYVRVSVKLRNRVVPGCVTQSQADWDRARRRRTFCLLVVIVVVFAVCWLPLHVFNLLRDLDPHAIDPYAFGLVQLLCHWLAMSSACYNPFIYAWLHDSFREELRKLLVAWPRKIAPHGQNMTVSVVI

CXCR7 = CXCR7 (UniProt P25106 1-362)
Sequence of CXCR7 (P25106 whole entry): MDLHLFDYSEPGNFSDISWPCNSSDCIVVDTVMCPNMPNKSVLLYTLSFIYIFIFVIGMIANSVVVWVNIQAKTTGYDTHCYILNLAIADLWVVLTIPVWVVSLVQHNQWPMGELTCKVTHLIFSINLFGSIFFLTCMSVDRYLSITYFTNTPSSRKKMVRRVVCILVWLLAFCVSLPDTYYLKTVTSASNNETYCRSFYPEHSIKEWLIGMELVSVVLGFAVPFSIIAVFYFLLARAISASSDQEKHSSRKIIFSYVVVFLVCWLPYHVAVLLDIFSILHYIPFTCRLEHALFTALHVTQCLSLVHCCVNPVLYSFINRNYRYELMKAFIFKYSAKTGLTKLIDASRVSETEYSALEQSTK

LHCGR = LHCGR (UniProt P22888 27-699)
Sequence of LHCGR (P22888 27-699 limits assumed): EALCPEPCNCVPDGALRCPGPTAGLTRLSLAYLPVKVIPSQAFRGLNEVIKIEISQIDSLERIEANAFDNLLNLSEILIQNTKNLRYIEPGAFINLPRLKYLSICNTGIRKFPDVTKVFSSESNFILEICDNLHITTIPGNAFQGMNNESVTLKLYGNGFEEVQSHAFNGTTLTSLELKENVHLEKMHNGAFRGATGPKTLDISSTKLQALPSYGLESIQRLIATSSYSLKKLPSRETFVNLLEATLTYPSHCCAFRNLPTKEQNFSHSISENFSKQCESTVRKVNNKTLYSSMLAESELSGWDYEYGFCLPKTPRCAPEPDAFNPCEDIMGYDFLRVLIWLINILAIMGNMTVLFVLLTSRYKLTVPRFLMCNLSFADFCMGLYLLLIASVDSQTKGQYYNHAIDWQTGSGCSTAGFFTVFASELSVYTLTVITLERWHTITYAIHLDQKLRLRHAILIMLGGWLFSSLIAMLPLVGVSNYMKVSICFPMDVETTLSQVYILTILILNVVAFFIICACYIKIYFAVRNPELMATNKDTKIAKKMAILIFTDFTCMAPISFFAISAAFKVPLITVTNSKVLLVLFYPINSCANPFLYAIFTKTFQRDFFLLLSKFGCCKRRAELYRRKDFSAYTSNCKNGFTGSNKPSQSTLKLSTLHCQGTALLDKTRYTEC

OPRL1 = OPRL1 (UniProt P41146 1-370)
Sequence of OPRL1 (P41146 whole entry): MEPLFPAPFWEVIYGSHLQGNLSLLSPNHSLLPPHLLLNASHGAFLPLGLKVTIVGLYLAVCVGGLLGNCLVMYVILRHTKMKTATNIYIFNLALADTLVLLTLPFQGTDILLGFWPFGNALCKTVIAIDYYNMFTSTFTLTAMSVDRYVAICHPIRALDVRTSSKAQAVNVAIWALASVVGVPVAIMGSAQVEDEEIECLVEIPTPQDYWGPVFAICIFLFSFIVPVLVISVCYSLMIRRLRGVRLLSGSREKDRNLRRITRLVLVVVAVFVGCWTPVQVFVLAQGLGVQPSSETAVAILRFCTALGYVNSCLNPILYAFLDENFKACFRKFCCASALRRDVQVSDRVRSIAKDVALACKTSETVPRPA

CXCR1 = biological target: T2, CXCR1 (UniProt P25024 1-350)
T2 sequence (looked up): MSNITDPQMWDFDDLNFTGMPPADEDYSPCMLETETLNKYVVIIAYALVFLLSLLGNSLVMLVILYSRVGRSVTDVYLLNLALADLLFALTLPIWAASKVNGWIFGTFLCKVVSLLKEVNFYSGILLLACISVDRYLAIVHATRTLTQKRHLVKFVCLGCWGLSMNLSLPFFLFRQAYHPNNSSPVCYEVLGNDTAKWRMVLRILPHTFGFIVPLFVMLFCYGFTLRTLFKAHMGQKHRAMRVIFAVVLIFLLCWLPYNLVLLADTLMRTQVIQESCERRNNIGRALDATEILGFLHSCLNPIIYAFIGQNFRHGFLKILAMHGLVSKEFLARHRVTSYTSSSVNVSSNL

PROKR1 = PROKR1 (UniProt Q8TCW9 1-393)
Sequence of PROKR1 (Q8TCW9 whole entry): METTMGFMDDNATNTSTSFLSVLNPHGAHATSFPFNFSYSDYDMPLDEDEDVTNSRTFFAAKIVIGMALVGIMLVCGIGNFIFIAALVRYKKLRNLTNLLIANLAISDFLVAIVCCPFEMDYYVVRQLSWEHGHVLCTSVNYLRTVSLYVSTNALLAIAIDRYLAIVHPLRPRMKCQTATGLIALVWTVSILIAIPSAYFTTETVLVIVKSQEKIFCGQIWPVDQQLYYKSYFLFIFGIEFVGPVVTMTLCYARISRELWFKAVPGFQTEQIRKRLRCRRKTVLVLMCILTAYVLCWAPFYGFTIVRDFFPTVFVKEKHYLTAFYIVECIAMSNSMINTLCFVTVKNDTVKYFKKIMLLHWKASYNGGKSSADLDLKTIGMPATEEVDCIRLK

P2RY2 = P2RY2 (UniProt P41231 1-377)
Sequence of P2RY2 (P41231 whole entry): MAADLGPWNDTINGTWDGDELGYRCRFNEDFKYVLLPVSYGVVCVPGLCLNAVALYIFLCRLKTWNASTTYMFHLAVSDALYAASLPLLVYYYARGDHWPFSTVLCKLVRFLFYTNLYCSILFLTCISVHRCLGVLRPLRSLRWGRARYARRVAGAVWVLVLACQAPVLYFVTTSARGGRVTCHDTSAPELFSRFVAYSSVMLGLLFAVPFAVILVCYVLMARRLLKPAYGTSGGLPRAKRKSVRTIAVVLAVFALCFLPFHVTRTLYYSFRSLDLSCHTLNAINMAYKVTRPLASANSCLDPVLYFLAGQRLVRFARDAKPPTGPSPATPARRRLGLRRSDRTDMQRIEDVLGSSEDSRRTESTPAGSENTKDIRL

BDKRB1 = biological target: T3, BDKRB1 (UniProt P46663 1-353)
T3 sequence (looked up): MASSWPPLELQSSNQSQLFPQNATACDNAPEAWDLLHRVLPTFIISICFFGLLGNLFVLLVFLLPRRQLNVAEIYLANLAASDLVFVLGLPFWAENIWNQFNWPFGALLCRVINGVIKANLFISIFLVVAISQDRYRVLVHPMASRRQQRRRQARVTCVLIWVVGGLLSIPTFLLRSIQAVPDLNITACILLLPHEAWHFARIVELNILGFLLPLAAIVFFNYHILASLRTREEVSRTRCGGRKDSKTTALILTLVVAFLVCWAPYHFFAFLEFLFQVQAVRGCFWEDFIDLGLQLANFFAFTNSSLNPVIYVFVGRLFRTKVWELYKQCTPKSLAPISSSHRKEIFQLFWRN

FSHR = biological target: T4, FSHR (UniProt P23945 18-695)
T4 sequence (looked up): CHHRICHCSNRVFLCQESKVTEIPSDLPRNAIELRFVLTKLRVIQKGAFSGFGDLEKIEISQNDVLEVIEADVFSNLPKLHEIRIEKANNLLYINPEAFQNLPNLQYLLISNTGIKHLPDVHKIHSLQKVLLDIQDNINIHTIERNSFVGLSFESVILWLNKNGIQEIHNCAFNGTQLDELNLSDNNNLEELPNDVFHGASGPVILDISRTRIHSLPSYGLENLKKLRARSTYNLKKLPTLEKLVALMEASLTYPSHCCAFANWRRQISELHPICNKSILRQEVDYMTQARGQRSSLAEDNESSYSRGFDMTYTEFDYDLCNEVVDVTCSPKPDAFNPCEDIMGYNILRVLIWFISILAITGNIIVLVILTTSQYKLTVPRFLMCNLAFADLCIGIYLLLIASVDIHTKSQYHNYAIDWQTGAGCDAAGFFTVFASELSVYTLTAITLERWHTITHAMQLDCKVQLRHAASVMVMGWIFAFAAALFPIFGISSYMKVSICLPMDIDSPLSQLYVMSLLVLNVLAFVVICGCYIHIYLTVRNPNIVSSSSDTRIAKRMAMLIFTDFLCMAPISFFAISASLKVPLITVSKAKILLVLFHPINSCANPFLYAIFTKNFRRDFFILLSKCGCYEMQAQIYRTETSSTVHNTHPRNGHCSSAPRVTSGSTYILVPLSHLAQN

MLNR = MLNR (UniProt O43193 1-412)
Sequence of MLNR (O43193 whole entry): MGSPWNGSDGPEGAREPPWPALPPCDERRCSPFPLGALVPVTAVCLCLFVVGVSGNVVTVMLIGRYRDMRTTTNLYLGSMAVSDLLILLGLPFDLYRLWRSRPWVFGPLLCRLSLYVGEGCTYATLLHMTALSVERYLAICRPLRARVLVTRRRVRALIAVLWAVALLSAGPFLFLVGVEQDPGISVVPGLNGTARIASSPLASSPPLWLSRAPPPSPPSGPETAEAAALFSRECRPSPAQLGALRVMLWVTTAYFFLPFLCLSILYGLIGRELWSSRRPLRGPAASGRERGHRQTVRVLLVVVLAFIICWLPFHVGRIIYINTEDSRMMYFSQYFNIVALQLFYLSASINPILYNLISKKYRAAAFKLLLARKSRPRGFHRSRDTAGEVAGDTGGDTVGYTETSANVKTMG

MTNR1A = MTNR1A (UniProt P48039 1-350)
Sequence of MTNR1A (P48039 whole entry): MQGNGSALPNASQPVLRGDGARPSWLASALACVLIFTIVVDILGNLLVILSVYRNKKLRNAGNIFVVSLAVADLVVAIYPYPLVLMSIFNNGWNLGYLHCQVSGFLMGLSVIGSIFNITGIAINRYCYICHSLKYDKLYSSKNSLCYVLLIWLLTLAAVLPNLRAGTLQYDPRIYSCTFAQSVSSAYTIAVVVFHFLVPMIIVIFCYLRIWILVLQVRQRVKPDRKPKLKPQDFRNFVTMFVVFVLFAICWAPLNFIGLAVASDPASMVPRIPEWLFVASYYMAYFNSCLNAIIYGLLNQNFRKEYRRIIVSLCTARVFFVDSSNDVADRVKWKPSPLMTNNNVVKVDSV

HRH4 = HRH4 (UniProt Q9H3N8 1-390)
Sequence of HRH4 (Q9H3N8 whole entry): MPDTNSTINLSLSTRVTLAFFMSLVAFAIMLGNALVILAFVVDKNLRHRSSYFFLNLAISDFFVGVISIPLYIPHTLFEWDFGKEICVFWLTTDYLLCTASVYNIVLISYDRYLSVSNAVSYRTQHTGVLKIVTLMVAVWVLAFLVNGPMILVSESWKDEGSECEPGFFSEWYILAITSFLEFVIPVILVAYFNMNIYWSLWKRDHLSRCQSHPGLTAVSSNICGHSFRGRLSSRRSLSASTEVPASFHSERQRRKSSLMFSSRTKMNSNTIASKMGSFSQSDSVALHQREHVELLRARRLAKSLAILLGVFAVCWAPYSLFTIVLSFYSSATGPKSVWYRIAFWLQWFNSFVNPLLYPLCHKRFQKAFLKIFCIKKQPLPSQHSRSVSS

AVPR1A = AVPR1A (UniProt P37288 1-418)
Sequence of AVPR1A (P37288 whole entry): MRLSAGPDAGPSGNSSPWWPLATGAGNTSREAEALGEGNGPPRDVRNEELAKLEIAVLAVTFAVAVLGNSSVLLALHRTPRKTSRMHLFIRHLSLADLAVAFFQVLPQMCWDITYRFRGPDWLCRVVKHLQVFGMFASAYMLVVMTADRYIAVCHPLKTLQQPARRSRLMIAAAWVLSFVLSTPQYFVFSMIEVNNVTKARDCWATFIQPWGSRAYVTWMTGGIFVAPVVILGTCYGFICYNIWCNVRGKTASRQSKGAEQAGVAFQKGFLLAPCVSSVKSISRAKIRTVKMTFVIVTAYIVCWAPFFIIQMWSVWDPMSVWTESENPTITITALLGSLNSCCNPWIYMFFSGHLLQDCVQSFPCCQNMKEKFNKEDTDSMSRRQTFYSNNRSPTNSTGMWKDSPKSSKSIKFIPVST

VIPR1 = biological target: T5, VIPR1 (UniProt P32241 31-457)
T5 sequence (looked up): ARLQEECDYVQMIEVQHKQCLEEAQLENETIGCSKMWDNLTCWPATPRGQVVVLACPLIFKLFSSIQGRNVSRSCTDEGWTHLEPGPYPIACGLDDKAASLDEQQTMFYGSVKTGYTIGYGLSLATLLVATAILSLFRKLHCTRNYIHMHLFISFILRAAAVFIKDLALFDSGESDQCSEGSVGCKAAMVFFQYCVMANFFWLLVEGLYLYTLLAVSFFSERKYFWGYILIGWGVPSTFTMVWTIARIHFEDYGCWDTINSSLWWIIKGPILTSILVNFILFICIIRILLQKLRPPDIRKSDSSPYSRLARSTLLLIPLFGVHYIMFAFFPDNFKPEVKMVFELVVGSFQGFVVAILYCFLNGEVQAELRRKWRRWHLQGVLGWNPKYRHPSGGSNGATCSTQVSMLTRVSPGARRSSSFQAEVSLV

Sequence of HTR2A (P28223 whole entry): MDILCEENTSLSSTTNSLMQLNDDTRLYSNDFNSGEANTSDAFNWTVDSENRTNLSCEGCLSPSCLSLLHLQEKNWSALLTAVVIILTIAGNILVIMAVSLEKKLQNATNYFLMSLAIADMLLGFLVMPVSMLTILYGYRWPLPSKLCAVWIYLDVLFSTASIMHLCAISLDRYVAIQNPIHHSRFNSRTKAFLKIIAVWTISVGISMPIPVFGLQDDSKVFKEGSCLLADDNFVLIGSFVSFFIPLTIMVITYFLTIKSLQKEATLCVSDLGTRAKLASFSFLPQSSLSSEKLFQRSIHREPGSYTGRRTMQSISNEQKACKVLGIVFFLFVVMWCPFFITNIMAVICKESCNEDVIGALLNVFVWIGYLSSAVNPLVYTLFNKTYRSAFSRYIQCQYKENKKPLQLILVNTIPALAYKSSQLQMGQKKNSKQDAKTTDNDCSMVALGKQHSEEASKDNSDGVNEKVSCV
Sequence of SSTR3 (P32745 whole entry): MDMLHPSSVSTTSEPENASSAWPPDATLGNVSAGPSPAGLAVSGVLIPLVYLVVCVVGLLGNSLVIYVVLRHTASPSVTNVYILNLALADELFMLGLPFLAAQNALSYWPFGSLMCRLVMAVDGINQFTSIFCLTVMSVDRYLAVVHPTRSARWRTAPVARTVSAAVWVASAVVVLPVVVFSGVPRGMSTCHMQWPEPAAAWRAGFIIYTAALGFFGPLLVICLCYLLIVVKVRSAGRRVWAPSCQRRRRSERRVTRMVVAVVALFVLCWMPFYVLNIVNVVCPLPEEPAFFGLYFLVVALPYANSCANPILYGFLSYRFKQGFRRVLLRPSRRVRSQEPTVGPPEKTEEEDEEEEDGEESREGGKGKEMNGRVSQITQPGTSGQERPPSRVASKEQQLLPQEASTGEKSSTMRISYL

QATVGDVNTDRPGLLDLK (also: synthesised on Rink amide resin, C-terminal amide not given here outright) [octadecaneuropeptide (ODN)]
% Activity, arrestin, antagonist mode, 2.5 uM (SSTR3): 4.2%
% Activity, arrestin, antagonist mode, 2.5 uM (HTR2A): -9.7%
% Activity, arrestin, antagonist mode, 2.5 uM (PRLHR): -22.2%
% Activity, arrestin, antagonist mode, 2.5 uM (CXCR7): -9.6%
% Activity, arrestin, antagonist mode, 2.5 uM (LHCGR): 7.2%
% Activity, arrestin, antagonist mode, 2.5 uM (OPRL1): -5.6%
% Activity, arrestin, antagonist mode, 2.5 uM (CXCR1): 10.2%
% Activity, arrestin, antagonist mode, 2.5 uM (PROKR1): -12.4%
% Activity, arrestin, antagonist mode, 2.5 uM (P2RY2): -5.2%
% Activity, arrestin, antagonist mode, 2.5 uM (BDKRB1): -5.7%
% Activity, arrestin, antagonist mode, 2.5 uM (FSHR): -16.9%
% Activity, arrestin, antagonist mode, 2.5 uM (MLNR): -5.5%
% Activity, arrestin, antagonist mode, 2.5 uM (MTNR1A): 2.2%
% Activity, arrestin, antagonist mode, 2.5 uM (HRH4): 5.2%
% Activity, arrestin, antagonist mode, 2.5 uM (AVPR1A): -2.4%
% Activity, arrestin, antagonist mode, 2.5 uM (VIPR1): -11.6%
